Laboratory results from paper doi:10.1101/438903.

Target: DY-547P1 labelled NDC80-C Bonsai (ΔHec1 1-80)
Assay: MST

B1: MPS1^WT (1xNTE, residues 1-808), recombinant from insect cells (enzyme)
chain: MESEDLSGRELTIDSIMNKVRDIKNKFKNEDLTDELSLNKISADTTDNSGTVNQIMMMANNPEDWLSLLLKLEKNSVPLSDALLNKLIGRYSQAIEALPPDKYGQNESFARIQVRFAELKAIQEPDDARDYFQMARANCKKFAFVHISFAQFELSQGNVKKSKQLLQKAVERGAVPLEMLEIALRNLNLQKKQLLSEEEKKNLSASTVLTAQESFSGSLGHLQNRNNSCDSRGQTTKARFLYGENMPPQDAEIGYRNSLRQTNKTKQSCPFGRVPVNLLNSPDCDVKTDDSVVPCFMKRQTSRSECRDLVVPGSKPSGNDSCELRNLKSVQNSHFKEPLVSDEKSSELIITDSITLKNKTESSLLAKLEETKEYQEPEVPESNQKQWQSKRKSECINQNPAASSNHWQIPELARKVNTEQKHTTFEQPVFSVSKQSPPISTSKWFDPKSICKTPSSNTLDDYMSCFRTPVVKNDFPPACQLSTPYGQPACFQQQQHQILATPLQNLQVLASSSANECISVKGRIYSILKQIGSGGSSKVFQVLNEKKQIYAIKYVNLEEADNQTLDSYRNEIAYLNKLQQHSDKIIRLYDYEITDQYIYMVMECGNIDLNSWLKKKKSIDPWERKSYWKNMLEAVHTIHQHGIVHSDLKPANFLIVDGMLKLIDFGIANQMQPDTTSVVKDSQVGTVNYMPPEAIKDMSSSRENGKSKSKISPKSDVWSLGCILYYMTYGKTPFQQIINQISKLHAIIDPNHEIEFPDIPEKDLQDVLKCCLKRDPKQRISIPELLAHPYVQIQTHPVNQMAKGTTEE
With B1 the Kd was 300 nM.
